2 molecules from publication doi:10.1101/2020.02.11.943159 (bioRxiv, 2020) can be followed below.

Where no end group is shown, it is not given here.

For assay [1], the target named is pS2 CTD diheptapeptide. The assay can be described thus: fluorescence correlation spectroscopy.
Assay [2] deals with pS2pS5 CTD diheptapeptide. The assay is described as follows: fluorescence correlation spectroscopy.
Assay [3] has as its target T1, pS2 CTD diheptapeptide (also: pS2: Ser2 phosphorylated, which heptad repeat(s) not given here).
T1 peptide: YSPTSPSYSPTSPS
The assay is described as follows: fluorescence polarisation. A general note: In fluorescence polarisation assays a small probe gives low polarisation when free and higher when bound to something large.

In assay [4] the target is T2, pS2pS7 CTD diheptapeptide (also: pS2pS7: Ser2 and Ser7 phosphorylated, which heptad repeat(s) not given here).
T2 peptide: YSPTSPSYSPTSPS
The assay can be described thus: fluorescence polarisation.

Assay [5] addresses T3, pS2pS5 CTD diheptapeptide (also: pS2pS5: Ser2 and Ser5 phosphorylated, which heptad repeat(s) not given here).
T3 peptide: YSPTSPSYSPTSPS
The assay can be described thus: fluorescence polarisation.

Consider “PHF3 SPOC domain (1199-1356aa), bacterially expressed (from UniProt Q92576 1199-1356) (domain or fragment)”, for which the stoichiometry N (in the assay with pS2 CTD diheptapeptide [1]; in assay [2]) was 1 in each case.

B1: PHF3 SPOC R1248A mutant, bacterially expressed (domain or fragment)
chain: STFLARLNFIWKGFINMPSVAKFVTKAYPVSGSPEYLTEDLPDSIQVGGAISPQTVWDYVEKIKASGTKEICVVRFTPVTEEDQISYTLLFAYFSSRKRYGVAANNMKQVKDMYLIPLGATDKIPHPLVPFDGPGLELHRPNLLLGLIIRQKLKRQHS
In the case of B1, the “fold reduction of binding against SPOC WT” value (with pS2 CTD diheptapeptide [3]; in assay [4]; in assay [5]) was greater than 10 fold throughout.
